± gives the uncertainty stated by the source.
Assay: protein stability index of a GFP-peptide fusion (yeast GPS) (PSI 1-4); higher = more stable; sorted into four equal gates, so the index is relative within each strain
How it was run: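 The protein stability index of a peptide was calculated by multiplying its read frequency in each gate by that gate's number and adding the products. The peptides were tiled 17-residue stretches of yeast proteins, fused downstream of GFP on a Cherry-expressing plasmid and carried in yeast as a pooled library. Mid-log cultures in leucine-free medium were sorted into four equal gates by GFP/Cherry ratio, and each gate's plasmids were PCR-amplified and Illumina-sequenced.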

Sequence | protein stability index (doa10∆) | protein stability index (pdr5∆) | protein stability index (san1∆) | protein stability index (ubr1∆)
IADSTHVKRITKIAQSQ [ECM29] | 1.86 ± 0.097 | 1.71 ± 0.059 | 1.3 ± 0.12 | 1.38 ± 0.044
DKLLKRLKEKGSRVLIF [ISW2] | 1.35 ± 0.042 | 1.61 ± 0.059 | 1.36 ± 0.1 | 1.36 ± 0.052
SQPTNSTTTSLHVPNLQ [SMC4] | 1.99 ± 0.043 | 2.4 ± 0.035 | 2.21 ± 0.052 | 2.03 ± 0.027
QDRIQDVKLVLASNFDN [MED1] | 2.56 ± 0.057 | 2.67 ± 0.06 | 1.88 ± 0.08 | 2.21 ± 0.036
PHGISVFLSNLVETCLN [BRR2] | 1.39 ± 0.043 | 1.57 ± 0.035 | 1.48 ± 0.07 | 1.61 ± 0.03
YPLLIRMSYGSHDKKTK [SRP14] | 2.61 ± 0.06 | 2.49 ± 0.069 | 2.57 ± 0.043 | 2.6 ± 0.053
ENDIIKLSDSKTSNIES [BRR2] |  | 2.48 ± 0.18 | 2.77 ± 0.19 | 3.09 ± 0.15
MLPPKSVKFTHIAHTLP [SSN2] | 1.57 ± 0.073 | 2 ± 0.05 | 2.05 ± 0.098 | 1.82 ± 0.034
RGTTAVLKESIVNICDI [PUP1] |  | 3.2 ± 0.22 |  | 1.79 ± 0.27
VENIERVVMMKYDRKVP [RPO21] | 2.29 ± 0.17 | 2.67 ± 0.2 | 2.13 ± 0.19 | 2.36 ± 0.085
VDSRTKIRMLTQAAEFL [IRR1] | 2.47 ± 0.11 | 2.96 ± 0.084 | 1.78 ± 0.11 | 2.81 ± 0.079
PNLNMKYRKRQLVTREA [FAS2] | 3.68 ± 0.15 | 3.13 ± 0.11 | 3 ± 0.095 | 3.05 ± 0.081
EEDDEGELEQAQAWINL [RPN7] | 3.58 ± 0.28 | 3.23 ± 0.11 | 3.43 ± 0.11 | 3.26 ± 0.058
SQNDGFVIIRGSQILSG [RPO31] |  | 3.13 ± 0.17 | 2.86 ± 0.16 | 2.61 ± 0.29
VNEIMYKCTAAMEKYLL [MTW1] | 2.19 ± 0.046 | 2.44 ± 0.06 | 2.4 ± 0.07 | 2.29 ± 0.056
VVTMSVKSVNDPSQNRL [RPC37] | 2.27 ± 0.19 | 2.56 ± 0.27 | 2.42 ± 0.17 | 
ESGEFDFDLFKEVLPDL [YJL039C/NUP192] | 3.43 ± 0.13 | 3.26 ± 0.092 | 3.17 ± 0.063 | 3.23 ± 0.079
LAPSKHQPITSEQKMKE [SIR4] | 2.31 ± 0.077 | 2.37 ± 0.098 | 2.61 ± 0.1 | 2.29 ± 0.24
KLHVNWNLNATKPNVLN [SIN4] | 2.94 ± 0.17 | 2.86 ± 0.11 | 2.85 ± 0.11 | 2.93 ± 0.098
DVRRLKKNVWRSINNLI [BRN1] | 2.62 ± 0.29 | 1.9 ± 0.11 | 1.06 ± 0.15 | 1.1 ± 0.063
IPHFIDNNSSLNVSNTK [PRP8] | 2.36 ± 0.08 | 2.42 ± 0.069 | 2.66 ± 0.053 | 2.51 ± 0.06
VFQLPTRLPAFERPAVK [RPC53] | 3.01 ± 0.093 | 2.89 ± 0.072 | 2.81 ± 0.1 | 3.01 ± 0.079
AKNEDDPAHSLNYTVIN [AAR2] | 2.93 ± 0.2 | 3.05 ± 0.18 | 2.68 ± 0.11 | 2.43 ± 0.18
HAERDLALAETLKLRAR [SRP68] | 2.95 ± 0.15 | 2.74 ± 0.27 |  | 
DRHIGCAMSGLTADARS [PUP2] | 2.67 ± 0.096 | 3.08 ± 0.12 |  | 2.69 ± 0.07
VDLTSSNFADSADYEIL [YDL116W/NUP84] | 2.84 ± 0.087 | 3.12 ± 0.098 | 3.31 ± 0.093 | 3.29 ± 0.09
RPKKVKLEGSENSEPPA [SNF2] | 3.13 ± 0.095 | 2.95 ± 0.08 | 3.33 ± 0.079 | 3.28 ± 0.063
YKKSTENESTNYQYKIQ [MED7] | 2.58 ± 0.046 | 2.48 ± 0.045 | 2.41 ± 0.055 | 2.59 ± 0.035

Sequence | protein stability index (doa10∆) | protein stability index (pdr5∆) | protein stability index (san1∆) | protein stability index (ubr1∆)
ADGPTMREITETIAEAK [RPO21] | 3.46 ± 0.074 | 3.45 ± 0.055 | 3.39 ± 0.026 | 3.39 ± 0.041
KQEQEEKIKSKKINRRN [YCG1] | 3.4 ± 0.18 | 2.87 ± 0.17 | 2.75 ± 0.29 | 3.22 ± 0.15
KTMIKTIEKDKMKIQET [SMC2] | 2.85 ± 0.17 | 1.86 ± 0.14 | 1.64 ± 0.12 | 2.04 ± 0.062
HDGGFDLVHIKDSLDNT [RPS4A] | 2.05 ± 0.079 | 2.26 ± 0.06 | 2.73 ± 0.12 | 2.33 ± 0.04
KLLGIGDIESLFEQLQT [SRP54] | 1.58 ± 0.062 | 2.15 ± 0.069 | 2.2 ± 0.13 | 2.67 ± 0.064
LNKEKLGPLFKKIVDDT [IRR1] | 2.94 ± 0.099 | 3.12 ± 0.12 | 3.22 ± 0.23 | 2.94 ± 0.076
MTIDLEPIEESSQNNSE [IRR1] | 2.94 ± 0.068 | 3.14 ± 0.056 | 2.67 ± 0.11 | 3.09 ± 0.059
NGEEIVGFWKDDGDDED [MTR3] | 2.52 ± 0.11 | 2.66 ± 0.074 | 2.89 ± 0.091 | 3.45 ± 0.087
VSFYFEDGTIESYNQND [SIN4] | 2.2 ± 0.083 | 2.34 ± 0.1 | 2.41 ± 0.076 | 2.92 ± 0.084
LNISPFTFGLTVVQVYD [RPP0] | 1.31 ± 0.043 | 1.61 ± 0.052 | 1.55 ± 0.072 | 1.2 ± 0.044
RSSSASNEFVPNTSDNN [SWI1] | 2.72 ± 0.068 | 2.77 ± 0.09 | 2.69 ± 0.059 | 2.9 ± 0.063
VKDELMFSPLVDSGSND [RPO21] | 3.11 ± 0.065 | 3.17 ± 0.053 | 3.22 ± 0.047 | 3.21 ± 0.048
DGAGGDNEVQRTMLELI [RPT1] | 3.6 ± 0.16 | 2.95 ± 0.13 | 3.44 ± 0.11 | 3.36 ± 0.066
IINPHAIPSRMTVAHLI [RPB2] | 1.79 ± 0.054 | 2.06 ± 0.044 | 1.86 ± 0.076 | 2.1 ± 0.046
LNSYHIKNGRIYFTVPN [RGR1] | 2.57 ± 0.054 | 2.21 ± 0.035 | 2.19 ± 0.056 | 2.33 ± 0.037
LPLPPSVEWMKVSPSMC [SIN4] | 1.75 ± 0.055 | 1.71 ± 0.05 | 1.69 ± 0.09 | 1.55 ± 0.063
SRGGVTQVRVEFLEDTS [RPS28A] | 3.41 ± 0.071 | 3.15 ± 0.058 | 3.16 ± 0.052 | 3.22 ± 0.05
EEQRSDTKNSKSESPSE [ISW2] |  | 3.21 ± 0.23 |  | 
RNIILEARFDVLITSYE [ISW2] | 2.85 ± 0.11 | 2.22 ± 0.076 | 2.41 ± 0.088 | 2.61 ± 0.074
SNDSQSHFDYNTLEFII [YCG1] | 2.52 ± 0.2 | 2.78 ± 0.19 |  | 2.89 ± 0.14
DAELMADEEEEIVDTYQ [ISW2] | 1.32 ± 0.15 | 1.3 ± 0.27 |  | 1.24 ± 0.25
QLYKRDPVSGAILVPMT [YJR042W/NUP85] | 1.95 ± 0.18 | 1.75 ± 0.24 | 2.6 ± 0.099 | 2.67 ± 0.13
EVYGINEESTNERLEIN [SIR4] | 3.29 ± 0.16 | 3.25 ± 0.13 | 3.22 ± 0.16 | 3.15 ± 0.14
LSLGMDFIKFDQIAVCE [BRN1] | 3 ± 0.085 | 3.01 ± 0.079 | 2.77 ± 0.057 | 2.89 ± 0.071
TSTGTTIVGVKFNNGVV [PUP1] | 2.55 ± 0.12 | 3.14 ± 0.11 | 3.01 ± 0.14 | 2.71 ± 0.095
SDRECPKCHSRENVFFQ [RPB9] | 2.88 ± 0.062 | 2.74 ± 0.061 | 2.47 ± 0.058 | 2.79 ± 0.04
AKSISTSAKEPSENDVF [RPO31] | 2.99 ± 0.072 | 3.06 ± 0.069 | 2.56 ± 0.083 | 3.2 ± 0.09

— the supplement of paper PMC9732359
